Target: T1, Ubc9 (Sumo E2 conjugating enzyme), S. cerevisiae (S. cerevisiae, UniProt P50623 1-157)
T1 construct: Ubc9, S. cerevisiae; also called yeast Ubc9; source: cation exchange for crystallography; not shown: GST, N-terminal, cleaved
T1 sequence: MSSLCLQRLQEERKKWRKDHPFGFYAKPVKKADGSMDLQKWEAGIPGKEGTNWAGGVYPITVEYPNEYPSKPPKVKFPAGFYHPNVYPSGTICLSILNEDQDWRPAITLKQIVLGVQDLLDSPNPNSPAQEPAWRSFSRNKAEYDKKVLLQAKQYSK
Test: crystal structure; 1.1:1 volume:volume mixture of Uba2^ufd at 22 mg/ml and Ubc9 at 27 mg/ml; crystals at 4°C; 20% (w/v) PEG3350, 0.1 M Bis-Tris pH 5.5, 0.2 M Li2SO4; 2.3 Å; two complexes per asymmetric unit
Conditions: both partners purified

B1: Uba2 ubiquitin-fold domain (Uba2^ufd), residues 439-563, S. cerevisiae (domain or fragment, UniProt P52488 439-563, looked up)
chain: SKVCRGVIKLSSDCLNKMKLSDFVVLIREKYSYPQDISLLDASNQRLLFDYDFEDLNDRTLSEINLGNGSIILFSDEEGDTMIRKAIELFLDVDDELPCNTCSLPDVEVPLIKANNSPSKNEEEE
notes: Uba2 (Sumo E1 subunit), S. cerevisiae, C-terminal ubiquitin-fold domain, residues 439-563; Expressed from pGEX-4T1; also called yeast Uba2^ufd; not shown: GST, N-terminal, cleaved
Question: Does B1 bind?
Answer: binds
